Results reported in patent publication US20040038340.

How the values were obtained:
[1] = biological target: T1, HPr(His)6 from B. subtilis, P08877
T1 chain: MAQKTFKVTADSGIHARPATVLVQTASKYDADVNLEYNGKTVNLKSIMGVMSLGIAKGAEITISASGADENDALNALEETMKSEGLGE

[2] = biological target: T2, P-Ser-HPr(His)6 from B. subtilis, P08877
T2 chain: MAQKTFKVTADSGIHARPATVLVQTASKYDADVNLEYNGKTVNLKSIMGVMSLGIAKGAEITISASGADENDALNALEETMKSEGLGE

B1: His-tagged L. casei HprK (protein)
chain: MADSVTVRQLVKATKLEVYSGEEYLDQRQVVLSDISRPGLELTGYFNYYPHERIQLFGRTEISFARNMSSEERLLILKRMATEDTPAFLVSRGLEAPAEMITAATAAHIPVLGSRLPTTRLSSLITEYLDSQLAERRSMHGVLVDIYGLGVLITGDSGVGKSETALELVQRGHRLIADDRVDVYQQDEQTIVGAAPPILSHLLEIRGLGIIDVMNLFGAGAVREDTTISLIVHLENWTPDKTFDRLGSGEQTQLIFDVPVPKITVPVKVGRNLAIIIEVAAMNFRAKSMGYDATKTFEKNLNHLIEHNEETDQNSSGDK
[1]
  HPr kinase activity (ATP-dependent HPr phosphorylation, non-denaturing gel): HprK of L. casei was indeed found to be bifunctional
[2]
  P-Ser-HPr phosphatase activity (non-denaturing gel): HprK of L. casei was indeed found to be bifunctional
